{"source": "paper PMC11309785", "test_in_all_cases": "SPR; ProteOn XPR36, HC30M chip; IgG captured at low density (about 50 to 100 RU) by anti-human IgG (Fc) antibody, trimer flowed as analyte, highest concentration 3 µM; 1x HBS-EP+ pH 7.4 with BSA 1 mg/ml", "key": {"[1]": {"target": "BG18 inferred germline IgG, Asp at the (D3-3)+2 position (human)", "sequence (heavy, as listed by the source, chain 1 of 2)": "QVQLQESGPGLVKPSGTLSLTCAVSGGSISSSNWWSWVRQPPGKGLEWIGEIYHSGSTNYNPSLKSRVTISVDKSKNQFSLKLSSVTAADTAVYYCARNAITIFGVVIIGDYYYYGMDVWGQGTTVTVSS", "sequence (light, as listed by the source, chain 2 of 2)": "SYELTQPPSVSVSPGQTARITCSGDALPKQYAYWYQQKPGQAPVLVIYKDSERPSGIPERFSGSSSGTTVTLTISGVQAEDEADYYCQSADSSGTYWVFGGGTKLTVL"}, "[2]": {"target": "BG18 inferred germline IgG, Glu at the (D3-3)+2 position (human)", "sequence (heavy, as listed by the source, chain 1 of 2)": "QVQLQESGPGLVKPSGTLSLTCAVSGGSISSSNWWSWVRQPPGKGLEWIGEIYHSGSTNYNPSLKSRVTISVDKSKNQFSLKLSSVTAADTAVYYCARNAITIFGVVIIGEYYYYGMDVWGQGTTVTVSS", "sequence (light, as listed by the source, chain 2 of 2)": "as the sequence (light, as listed by the source, chain 2 of 2) above"}, "[3]": {"target": "BG18 inferred germline IgG, Gly at the (D3-3)+2 position (human)", "sequence (heavy, as listed by the source, chain 1 of 2)": "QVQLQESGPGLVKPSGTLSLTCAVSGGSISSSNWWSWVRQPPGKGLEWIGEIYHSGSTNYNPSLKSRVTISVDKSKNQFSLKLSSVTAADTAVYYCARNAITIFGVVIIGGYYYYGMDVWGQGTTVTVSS", "sequence (light, as listed by the source, chain 2 of 2)": "as the sequence (light, as listed by the source, chain 2 of 2) above"}}, "data": [{"substance": "N332-GT5 trimer (BG505_MD65_congly_N332-GT5)", "values": [{"measurement": "Kd", "setting": "[1]", "value": 39, "unit": "nM"}, {"measurement": "Kd", "setting": "[2]", "value": 0.7, "unit": "nM"}, {"measurement": "Kd", "setting": "[3]", "value": 1790, "unit": "nM"}]}]}
